Experimental data: US20200223903A1 (NEOMATRIX THERAPEUTICS, published 2020)

Legend:
epidermal growth factor = target: T1, epidermal growth factor (UniProt P01133 971-1023); assay: SPR (Biacore T200), real time interaction of peptide with growth factor
T1 construct: also called EGF
Method: (§1) To study the binding activities of these peptides, real time interactions of P12, P46, and cNP8 with growth factors were determined by plasmon surface resonance (Biacore T200).

[1] = target: T2, insulin-like growth factor-1 (UniProt P05019 49-118); assay: as above
T2 construct: also called IGF-1
T2 sequence (P05019 49-118 limits assumed): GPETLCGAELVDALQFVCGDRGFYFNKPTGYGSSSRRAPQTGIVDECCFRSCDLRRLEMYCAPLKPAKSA
Method: as §1

T1 sequence (P01133 971-1023 limits assumed): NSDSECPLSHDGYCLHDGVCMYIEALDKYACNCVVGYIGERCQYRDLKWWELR

B1: P46 (HISKYILRWRPKNSV), fibronectin-derived peptide (peptide)
peptide: HISKYILRWRPKNSV
notes: Found as an elastase digestion product of FNIII1-C and then synthesized; Linear
binding result (epidermal growth factor): no binding
binding result [1]: no binding

B2: cNP8, cyclic HIGKYGLRWRPKGSV, elastase-resistant engineered peptide derived from P46 (peptide)
peptide: HIGKYGLRWRPKGSV
modifications: cyclic: N terminus amino acid bound to the C terminus amino acid
notes: also called cyclic NP8
binding result (epidermal growth factor): no binding
binding result [1]: no binding

B3: P12 (PSHISKYILRWRPK), 14-residue peptide of fibronectin's first type III repeat (peptide)
peptide: PSHISKYILRWRPK
notes: Linear P12 as named in the SPR paragraph
binding result (epidermal growth factor): no binding
binding result [1]: no binding
